# Results published in the DeepSol protein solubility set.
# Assay: soluble on expression in E. coli; label from the status in PepcDB or PDB records
row,Sequence,soluble on expression in E. coli
1,MSLKALIFDMDGVLVDSMPFHAAAWKKAFLEMGMEIQDEDIYAIEGSNPRNGLPLLIRKARKEPEDFDFEAITSIYRQEFNRIFKLKAFDGMKECLEFLKSRFLLSVVSGSDRLIVNGIVDQLFPGIFDTVVTGDDVLNSKPDPDPFLKAVELLNVGKEECVVIENAVLGVEAAKKADIYCIGVPTYVKPSELDRADLVVGNHQKLMEHLLSLEPLFSPEFIPGRREGHHHHHH,soluble
2,MSLKCEYLIIGSGIAGYNALKELLQIKPNSRIIMITSDKYYPYDRPPLSKDYLKGKLEKDMLFFESDDFYKRDNLEVMLNKSVERIDANLKEAILNDGSVISFDKALISTGGRPRRLNIPGSENALYLRSLDDADRIREAASKGKNALIIGAGFIGVEVASSLITLGVKTTVVEVMPYIWNTFVDEKVSRVIQQYLESKGINFILNESVKEIQGKIATTSSGRKIEADMFLIAVGISPNVELAQRSGMQVDNGIVVNEYLETSARDIYAAGDIANIFDPREGKRKRIEHWNNAEYTGKLAARNMAGSREAYNFISSIWSDIFDLHIESAGETRNYDEYIIRGKFELERPRFSVIYLKGGIIKGYLAINRNVKEIIALNKLIQKQADVSSKRDKLADESFDLQKLLIEGHHHHHH,soluble
3,MSLKDQVQLVKRRDSIRYEIVSIQDRLSFEKGFFAVIRACQLLSQKNDGIILVGVAGPSGAGKTVFTEKILNFLPSVAVISMDNYNDSSRIVDGNFDDPRLTDYDTLLKNLEDLKEGKQVEVPIYDFKSSSRVGYRTLDVPPSRIVIIEGIYALSEKLRPMLDLRVSVTGGVHFDLVKRVLRDIQRAGQQPEEIIHQISETVYPMYKAFIEPDLQTAQIKIINKFNPFTGFQSPTYILKSRKEGHHHHHH,not soluble
4,MSLKEVAAKTGIGTLPEWNLGDLYMGIDAPEIAHDLAKMDAECVAFETDYKGKLAEHVARDDGGEWLAAAVRRYEAIDDLAGRLGSFAGLAHAGDSVDPAISKFYGDISERLTAASTHLLFFPLELNRIDDAVIERAMETPALGHYRPWIEDLRKDKPYQLEDRVEQLFHEKSQTGYSAWNRLFDQTIAGLRFQVGGKELAIEPTLNFLQDRDGAKRKAAAEALAKTFKANERTFALITNTLAKDKDISDRWRGFQDVADSRHLNNRVEREVVDALVASVRAAYPKLSHRYYQLKARWFKKKKLAHWDRNAPLPFAANATIAWPDAKNMVLTAYRGFSPEMADIAQRFFDQSWIDAPVRPGKAPGAFSHPTTPSAHPYVLMNYQGKPRDVMTLAHELGHGVHQVLAARQGALMAPTPLTLAETASVFGEMLTFKRLLSETRDAKQRQALLAGKVEDMINTVVRQIAFYSFERAVHTERKNGELTAERLGQIWLSVQTESLGEAIEIKPGYENFWMYIPHFIHSPFYVYAYAFGDCLVNSLYAVYEHAAEGFAERYLAMLAAGGTKHYSELLAPFGLDAKDPKFWDGGLSVIAGMIDELERMGEGHHHHHH,soluble
5,MSLKFPRKGIPQEEVMRELEKYTSKDLSFSSGKILGSMCTLPHELAKEVFCMYMDRNLGDPGLHPGTKKIEEEVIEMLSDLLHLERGYGHIVSGGTEANILAVRAFRNLADVENPELILPKSAHFSFIKAGEMLGVKLIWADLNPDYTVDVKDVEAKISENTIGIVGIAGTTGLGVVDDIPALSDLARDYGIPLHVDAAFGGFVIPFAKELGYDLPDFDFKLKGVQSITIDPHKMGMAPIPAGGIVFRHKKYLRAISVLAPYLAGGKIWQATITGTRPGASVLAVWALIKHLGFEGYMEIVDRAMKLSRWFAEEIKKTPGAWLVREPMLNIVSFKTKNLRRVERELKSRGWGISAHRGYIRIVSHASCDGGHDEGHHHHHH,soluble
6,MSLKFYEDGNIPEIPNMYFIYGDGGTGKTSLLKQLKGHKFVFSFDMSSNVLIGDKDVDVVIFEHNDAPNIQAMVEECIIRAIQNAKYQVIVLDNVTALQNLVLENIDNAAKDNRQNYQKLQLWFRDLGTILKESGKTIYATAHQLDNGSSGISGEGRFQADMNEKTFNAFTSMFDLVGRIYLAAGERMIDLDPEKGNHAKNRLDDRKLIKANELIQSEKGEGHHHHHH,soluble
7,MSLKGIVFGSGQIGSSVALNLVDGMDVTVADRDPTNLRKIQDNIGSRVSVIQVDALRDDIKHIISDYDIVVSALPGSVGFQFAKSIAPFGVRMIDISYYEDDVFLLDDVAKKSSSVIVPDIGFAPGISNVLVGHFSYELEDVKDVHIYVGGIPEKRIGGLDYVITWSVEGLLDEYTRPVHIVQNGSITQVEPLSGLEKINIQKYTDLEAFYTDGLRTLGKTIRASGSMWEKTVRYSGHAEKIRLLKDLGFFSRKKVKVGNSEIAPFDFTAEIFRNNLSMSGVKDVSLMYVKVTGTRNGDIVKHEASMVAPYDEKRKRSSMANVTSVPASATADFLSKNEIGKYGVVAPEILGKDENFYKQFINYLGQYGIIISEGHHHHHH,not soluble
8,MSLKHSKIRIAHISDIHIGSRLDKLPQKMVNKIIEENPDLVVITGDLIDSHNVISTDLASFNAFKERNIPIYYTIGNHDIMAGEEYVSSILEYYGIIYLKNQVTQITIGDETIQLVGIDDVQSITKYNEIFNSITPSIHNNIYTILLHHRPQGYKTSVQSGQIDLQLAGHTHDGQVFPFNYIVPLFHSKSYGMYHIKDEGHHHHHH,not soluble
9,MSLKIAILYREEREKEGEFLKEKISKEHEVIEFGEANAPGRVTADLIVVVGGDGTVLKAAKKAADGTPMVGFKAGRLGFLTSYTLDEIDRFLEDLRNWNFREETRWFIQIESELGNHLALNDVTLERDLSGKMVEIEVEVEHHSSMWFFADGVVISTPTGSTAYSLSIGGPIIFPECEVLEISPIAPQFFLTRSVVIPSNFKVVVESQRDINMLVDGVLTGKTKRIEVKKSRRYVRILRPPEYDYVTVIRDKLGYGRRIEEGGSHHHHHH,soluble
10,MSLKIHGLIDAPFTPFYENGEVNYEPIEAYCQLLVRNGLQGVFINGSSGEGYMLTEDERMKLAERWMEVAPEGFKVIVHVGSTCVKSSKRLAEHAQKIGAWGIGAMAPPFPKVGRIEELVKYCEEIACGAPALPFYFYHIPAFNGAFLSMVAFLEAVDGRIPNFAGIKYTFESLYEYNQCRLYKNGKFDMLHGQDETILPCLAMGGAQGGIGGTTNYNGKELTGIIEAWKAGDLELARERQNFAQEVINVICHYRGNIVGGKRIMKLIGLDLGKNRTPFQNMTDEEEAAMKAELEAINFFEREGHHHHHH,soluble
11,MSLKITDLELHAVGIPRHTGFVNKHVIVKIHTDEGLTGIGEMSDFSHLPLYSVDLHDLKQGLLSILLGQNPFDLMKINKELTDNFPETMYYYEKGSFIRNGIDNALHDLCAKYLDISVSDFLGGRVKEKIKVCYPIFRHRFSEEVESNLDVVRQKLEQGFDVFRLYVGKNLDADEEFLSRVKEEFGSRVRIKSYDFSHLLNWKDAHRAIKRLTKYDLGLEMIESPAPRNDFDGLYQLRLKTDYPISEHVWSFKQQQEMIKKDAIDIFNISPVFIGGLTSAKKAAYAAEVASKDVVLGTTQELSVGTAAMAHLGCSLTNINHTSDPTGPELYVGDVVKNRVTYKDGYLYAPDRSVKGLGIELDESLLAKYQVPDLSWDNVTVHQLQDRTADTKSEGHHHHHH,soluble
12,MSLKITDVRAHQIRIPYDAGVASFRQGASAITALDMVIVEVTTDAGLTGWGDAFAYVCPRTTRSAVEEMIAPQARGLEVPDAAGIAAVMEQIQRNLHLFGRYGITMFAISGLDIALWDLAAKIKGVPVHRLLGETRRPAIPAYASLLRIGSPDNIAAECKKALALGYGAIKLHETTAPAVYAAREAIGPGVPLMVDMNCPLSGEQAIAFAGTCRDAQPMFLEEPVWPPEDFAALAEVRSKGGLGVAAGENACTEHQFRQMMNAGAVSHAQPSVIKVGGITEFLKVAALADRLGVKIVPHSPYFGPGLLATLHLLAGRDDGFVEMFYLKREACLWGGRADVDATGHVAVPTGLGLGYEPDRGVMERYRVAEGHHHHHH,not soluble
13,MSLKITFTDKALDYLKRREILNKILILIADDGGGKYSIKGGGCAIGSHFSIIYVDKVDPDYPIKLENDQGINIYTSKYDTTMMGPNLVVDYANASLNLKSDEGLLDGGVDIGNGAELIKAQKNVKMTGVEWRCEGHHHHHH,soluble
